What all share (test): cell-based or functional assay
One assay deals with T1, ADAMTS5 (human, UniProt Q9UNA0 262-622, limits assumed).
T1 sequence (looked up): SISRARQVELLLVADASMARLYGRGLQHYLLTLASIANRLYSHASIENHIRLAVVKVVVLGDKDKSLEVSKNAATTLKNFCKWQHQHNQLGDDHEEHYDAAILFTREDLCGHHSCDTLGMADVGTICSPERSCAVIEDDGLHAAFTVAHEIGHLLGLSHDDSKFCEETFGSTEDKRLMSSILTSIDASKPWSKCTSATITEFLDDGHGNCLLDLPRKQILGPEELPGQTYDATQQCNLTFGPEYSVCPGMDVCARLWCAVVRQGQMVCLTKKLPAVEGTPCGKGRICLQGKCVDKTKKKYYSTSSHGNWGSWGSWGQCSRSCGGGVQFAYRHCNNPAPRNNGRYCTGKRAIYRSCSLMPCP

In another assay the target is MMP13 (human, UniProt P45452 104-471, limits assumed).
The next assay concerns the target T2, ADAMTS4 (human, UniProt O75173 213-685, limits assumed).
T2 sequence (looked up): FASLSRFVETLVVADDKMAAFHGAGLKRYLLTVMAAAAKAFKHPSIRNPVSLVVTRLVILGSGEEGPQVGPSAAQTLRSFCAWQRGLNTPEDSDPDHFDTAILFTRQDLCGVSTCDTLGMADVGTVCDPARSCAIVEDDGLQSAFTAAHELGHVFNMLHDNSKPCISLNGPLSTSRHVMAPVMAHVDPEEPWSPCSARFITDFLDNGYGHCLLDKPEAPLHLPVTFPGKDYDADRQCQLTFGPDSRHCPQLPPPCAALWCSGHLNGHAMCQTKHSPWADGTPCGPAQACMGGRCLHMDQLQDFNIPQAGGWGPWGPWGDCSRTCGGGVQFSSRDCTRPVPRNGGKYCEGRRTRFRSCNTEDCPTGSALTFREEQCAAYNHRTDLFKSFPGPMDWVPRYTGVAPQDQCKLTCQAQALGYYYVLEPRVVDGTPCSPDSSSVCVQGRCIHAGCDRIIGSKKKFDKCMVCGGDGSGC

B1: Variant A2M, bait region SEQ ID NO 121 (other)
chain: SVSGKPQYMVLVPSLLHTETTEKGCVLLSYLNETVTVSASLESVRGNRSLFTDLEAENDVLHCVAFAVPKSSSNEEVMFLTVQVKGPTQEFKKRTTVMVKNEDSLVFVQTDKSIYKPGQTVKFRVVSMDENFHPLNELIPLVYIQDPKGNRIAQWQSFQLEGGLKQFSFPLSSEPFQGSYKVVVQKKSGGRTEHPFTVEEFVLPKFEVQVTVPKIITILEEEMNVSVCGLYTYGKPVPGHVTVSICRKYSDASDCHGEDSQAFCEKFSGQLNSHGCFYQQVKTKVFQLKRKEYEMKLHTEAQIQEEGTVVELTGRQSSEITRTITKLSFVKVDSHFRQGIPFFGQVRLVDGKGVPIPNKVIFIRGNEANYYSNATTDEHGLVQFSINTTNVMGTSLTVRVNYKDRSPCYGYQWVSEEHEEAHHTAYLVFSPSKSFVHLEPMSHELPCGHTQTVQAHYILNGGTLLGLKKLSFYYLIMAKGGIVRTGTHGLLVKQEDMKGHFSISIPVKSDIAPVARLLIYAVLPTGDVIGDSAKYDVENCLANKVDLSFSPSQSLPASHAHLRVTAAPQSVCALRAVDQSVLLMKPDAELSASSVYNLLPEKDLTGFPGPLNDQDDEDCINRHNVYINGITYTPVSSTNEKDMYSFLEDMGLKAFTNSKIRKPKMCPQLEPESSGEAIPMSIPTSEDLVVQIPENFFGVEAEGTGGERGVLGKLRKYFPETWIWDLVVVNSAGVAEVGVTVPDTITEWKAGAFCLSEDAGLGISSTASLRAFQPFFVELTMPYSVIRGEAFTLKATVLNYLPKCIRVSVQLEASPAFLAVPVEKEQAPHCICANGRQTVSWAVTPKSLGNVNFTVSAEALESQELCGTEVPSVPEHGRKDTVIKPLLVEPEGLEKETTFNSLLCPSGGEVSEELSLKLPPNVVEESARASVSVLGDILGSAMQNTQNLLQMPYGCGEQNMVLFAPNIYVLDYLNETQQLTPEIKSKAIGYLNTGYQRQLNYKHYDGSYSTFGERYGRNQGNTWLTAFVLKTFAQARAYIFIDEAHITQALIWLSQRQKDNGCFRSSGSLLNNAIKGGVEDEVTLSAYITIALLEIPLTVTHPVVRNALFCLESAWKTAQEGDHGSHVYTKALLAYAFALAGNQDKRKEVLKSLNEEAVKKDNSVHWERPQKPKAPVGHFYEPQAPSAEVEMTSYVLLAYLTAQPAPTSEDLTSATNIVKWITKQQNAQGGFSSTQDTVVALHALSKYGAATFTRTGKAAQVTIQSSGTFSSKFQVDNNNRLLLQQVSLPELPGEYSMKVTGEGCVYLQTSLKYNILPEKEEFPFALGVQTLPQTCDEPKAHTSFQISLSVSYTGSRSASNMAIVDVKMVSGFIPLKPTVKMLERSNHVSRTEVSSNHVLIYLDKVSNQTLSLFFTVLQDVPVRDLKPAIVKVYDYYETDEFAIAEYNAPCSKDLGNADYKDDDDKGASHHHHHH
Consider B1, for which the “Protease Inhibition (% of WT)” value was 68 % of WT with ADAMTS5, 115 % of WT with MMP13 and 64 % of WT with ADAMTS4.

B2: Variant A2M, bait region SEQ ID NO 123 (other)
chain: SVSGKPQYMVLVPSLLHTETTEKGCVLLSYLNETVTVSASLESVRGNRSLFTDLEAENDVLHCVAFAVPKSSSNEEVMFLTVQVKGPTQEFKKRTTVMVKNEDSLVFVQTDKSIYKPGQTVKFRVVSMDENFHPLNELIPLVYIQDPKGNRIAQWQSFQLEGGLKQFSFPLSSEPFQGSYKVVVQKKSGGRTEHPFTVEEFVLPKFEVQVTVPKIITILEEEMNVSVCGLYTYGKPVPGHVTVSICRKYSDASDCHGEDSQAFCEKFSGQLNSHGCFYQQVKTKVFQLKRKEYEMKLHTEAQIQEEGTVVELTGRQSSEITRTITKLSFVKVDSHFRQGIPFFGQVRLVDGKGVPIPNKVIFIRGNEANYYSNATTDEHGLVQFSINTTNVMGTSLTVRVNYKDRSPCYGYQWVSEEHEEAHHTAYLVFSPSKSFVHLEPMSHELPCGHTQTVQAHYILNGGTLLGLKKLSFYYLIMAKGGIVRTGTHGLLVKQEDMKGHFSISIPVKSDIAPVARLLIYAVLPTGDVIGDSAKYDVENCLANKVDLSFSPSQSLPASHAHLRVTAAPQSVCALRAVDQSVLLMKPDAELSASSVYNLLPEKDLTGFPGPLNDQDDEDCINRHNVYINGITYTPVSSTNEKDMYSFLEDMGLKAFTNSKIRKPKMCPQLESQELGQRESESEGSELEGRGSGFKEGVEGKEEEGLGSGFFGFPIGKLRKYFPETWIWDLVVVNSAGVAEVGVTVPDTITEWKAGAFCLSEDAGLGISSTASLRAFQPFFVELTMPYSVIRGEAFTLKATVLNYLPKCIRVSVQLEASPAFLAVPVEKEQAPHCICANGRQTVSWAVTPKSLGNVNFTVSAEALESQELCGTEVPSVPEHGRKDTVIKPLLVEPEGLEKETTFNSLLCPSGGEVSEELSLKLPPNVVEESARASVSVLGDILGSAMQNTQNLLQMPYGCGEQNMVLFAPNIYVLDYLNETQQLTPEIKSKAIGYLNTGYQRQLNYKHYDGSYSTFGERYGRNQGNTWLTAFVLKTFAQARAYIFIDEAHITQALIWLSQRQKDNGCFRSSGSLLNNAIKGGVEDEVTLSAYITIALLEIPLTVTHPVVRNALFCLESAWKTAQEGDHGSHVYTKALLAYAFALAGNQDKRKEVLKSLNEEAVKKDNSVHWERPQKPKAPVGHFYEPQAPSAEVEMTSYVLLAYLTAQPAPTSEDLTSATNIVKWITKQQNAQGGFSSTQDTVVALHALSKYGAATFTRTGKAAQVTIQSSGTFSSKFQVDNNNRLLLQQVSLPELPGEYSMKVTGEGCVYLQTSLKYNILPEKEEFPFALGVQTLPQTCDEPKAHTSFQISLSVSYTGSRSASNMAIVDVKMVSGFIPLKPTVKMLERSNHVSRTEVSSNHVLIYLDKVSNQTLSLFFTVLQDVPVRDLKPAIVKVYDYYETDEFAIAEYNAPCSKDLGNADYKDDDDKGASHHHHHH
On to B2, for which the “Protease Inhibition (% of WT)” value with ADAMTS5 was 126 % of WT; with MMP13, 122 % of WT; in the assay with ADAMTS4 it was 86 % of WT.

For the origin of these results see patent US20230250154A1 (CYTONICS, published 2023).
